Laboratory results from patent US20100305031A1 (Daiichi Sankyo, published 2010).
Bridges are numbered along the chain shown (N, C = ends). Where no end group is shown, it is not given here.

Biological target: human type recombinant neutral endopeptidase (hNEP, manufactured by R&D Systems, Inc., U.S.A.) (human, UniProt P08473 52-750)
Assay: cell-based or functional assay

Sequence of human type recombinant neutral endopeptidase (hNEP, manufactured by R&D Systems, Inc., U.S.A.) (P08473 52-750 limits assumed): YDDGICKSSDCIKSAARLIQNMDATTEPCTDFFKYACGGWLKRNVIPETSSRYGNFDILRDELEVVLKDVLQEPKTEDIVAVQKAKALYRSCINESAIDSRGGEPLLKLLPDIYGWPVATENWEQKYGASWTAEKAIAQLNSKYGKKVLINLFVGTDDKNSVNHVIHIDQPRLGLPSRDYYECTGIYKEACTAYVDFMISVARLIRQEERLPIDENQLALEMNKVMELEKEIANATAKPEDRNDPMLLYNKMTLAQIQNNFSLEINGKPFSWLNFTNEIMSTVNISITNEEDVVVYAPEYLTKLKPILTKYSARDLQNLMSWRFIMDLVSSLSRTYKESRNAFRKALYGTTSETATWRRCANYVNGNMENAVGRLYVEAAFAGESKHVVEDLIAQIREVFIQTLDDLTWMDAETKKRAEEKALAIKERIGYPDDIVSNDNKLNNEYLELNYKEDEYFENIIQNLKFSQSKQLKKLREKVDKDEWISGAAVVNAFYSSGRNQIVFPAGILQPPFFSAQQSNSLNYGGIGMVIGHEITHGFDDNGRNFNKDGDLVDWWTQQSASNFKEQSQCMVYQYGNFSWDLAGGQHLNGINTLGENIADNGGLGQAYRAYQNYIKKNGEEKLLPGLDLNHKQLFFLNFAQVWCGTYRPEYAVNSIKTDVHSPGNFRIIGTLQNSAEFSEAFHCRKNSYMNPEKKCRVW

Binder | Residual Rate (%) of the unchanged peptide after 1 hour at 37° C. with hNEP (HPLC) [%]
CFGLKLDRIGSMSGLGCVQQRKESKKPPAKLQPR (disulfide 1-17 (inferred)) [Chimeric CNP (B)] | 83.8
RPQLKAPPKKSEKRQQVCFGLKLDRIGSMSGLGC (disulfide 18-34 (inferred)) [Chimeric CNP (A)] | 84.3
GLSKGCFGLKLDRIGSMSGLGC (disulfide 6-22) [Native CNP-22] | 16.7
